Source: patent US20150072933A1, “NOVEL SEQUENCES FOR THE CONTROL OF REPRODUCTION IN FISH” (Yissum Research Development Company of the Hebrew …, priority 2011, published 2015)
Where no end group is shown, it is not given here.

T1: zebrafish Tac3rb (tac3 receptor b, NKB receptor) (zebrafish)
T1 chain: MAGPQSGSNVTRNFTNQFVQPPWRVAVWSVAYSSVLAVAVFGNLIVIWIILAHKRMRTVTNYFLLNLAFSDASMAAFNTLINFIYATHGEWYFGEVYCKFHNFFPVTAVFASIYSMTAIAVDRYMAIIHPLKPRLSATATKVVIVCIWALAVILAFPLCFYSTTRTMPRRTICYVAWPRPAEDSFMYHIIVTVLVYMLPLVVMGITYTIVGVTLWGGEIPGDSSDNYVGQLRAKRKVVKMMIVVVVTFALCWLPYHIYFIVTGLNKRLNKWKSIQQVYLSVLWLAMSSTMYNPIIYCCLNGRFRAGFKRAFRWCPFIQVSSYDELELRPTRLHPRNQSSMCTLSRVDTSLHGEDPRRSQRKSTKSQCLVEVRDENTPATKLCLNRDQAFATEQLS

T2: human NK3R (human NKB receptor) (human, UniProt P29371 1-465)
T2 sequence (looked up): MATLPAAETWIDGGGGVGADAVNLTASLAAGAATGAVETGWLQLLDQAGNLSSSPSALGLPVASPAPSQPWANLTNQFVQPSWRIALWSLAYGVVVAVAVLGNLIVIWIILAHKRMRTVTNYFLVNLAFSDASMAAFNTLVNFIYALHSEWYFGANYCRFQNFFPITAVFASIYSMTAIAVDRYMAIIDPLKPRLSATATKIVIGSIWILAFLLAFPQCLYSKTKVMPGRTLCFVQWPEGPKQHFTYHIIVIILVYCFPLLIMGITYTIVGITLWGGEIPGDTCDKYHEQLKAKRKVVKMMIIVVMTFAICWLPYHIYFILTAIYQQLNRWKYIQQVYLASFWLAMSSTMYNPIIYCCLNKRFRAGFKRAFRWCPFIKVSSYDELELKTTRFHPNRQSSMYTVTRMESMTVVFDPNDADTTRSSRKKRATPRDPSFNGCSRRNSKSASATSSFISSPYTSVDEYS

T3: zebrafish Tac3ra (tac3 receptor a, NKB receptor) (zebrafish)
T3 chain: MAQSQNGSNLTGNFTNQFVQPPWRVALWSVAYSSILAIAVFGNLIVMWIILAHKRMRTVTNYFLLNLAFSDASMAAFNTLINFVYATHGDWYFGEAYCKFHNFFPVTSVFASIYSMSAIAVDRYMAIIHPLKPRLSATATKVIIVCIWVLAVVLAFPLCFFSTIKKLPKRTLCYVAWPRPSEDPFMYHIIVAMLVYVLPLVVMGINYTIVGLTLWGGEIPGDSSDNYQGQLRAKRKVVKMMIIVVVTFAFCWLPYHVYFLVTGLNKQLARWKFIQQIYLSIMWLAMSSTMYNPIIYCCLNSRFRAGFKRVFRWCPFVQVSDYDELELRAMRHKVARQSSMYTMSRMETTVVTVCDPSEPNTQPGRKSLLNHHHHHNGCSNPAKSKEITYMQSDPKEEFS


Legend:
Test in all cases: cell-based or functional assay
[1] = molecular target: T1, zebrafish Tac3rb (tac3 receptor b, NKB …)
[2] = molecular target: T2, human NK3R (human NKB receptor)
[3] = molecular target: T3, zebrafish Tac3ra (tac3 receptor a, NKB …)
[4] = molecular target: T1, zebrafish Tac3rb (tac3 receptor b, NKB …)
[5] = molecular target: T2, human NK3R (human NKB receptor); remark: listed apart in the source
[6] = molecular target: T3, zebrafish Tac3ra (tac3 receptor a, NKB …)
[7] = molecular target: T1, zebrafish Tac3rb (tac3 receptor b, NKB …)
[8] = molecular target: T2, human NK3R (human NKB receptor); remark: listed apart in the source
[9] = molecular target: T3, zebrafish Tac3ra (tac3 receptor a, NKB …)

| Binder | EC50, CRE-Luc reporter (PKA activation), transfected COS-7 cells [1] | EC50, SRE-Luc reporter (PKC activation), transfected COS-7 cells [1] | EC50, CRE-Luc reporter (PKA activation), transfected COS-7 cells [2] | EC50, SRE-Luc reporter (PKC activation), transfected COS-7 cells [2] | EC50, CRE-Luc reporter (PKA activation), transfected COS-7 cells [3] | EC50, SRE-Luc reporter (PKC activation), transfected COS-7 cells [3] | EC50, CRE-Luc to follow PKA activation, transfected COS-7 cells [4] | EC50, CRE-Luc to follow PKA activation, transfected COS-7 cells [5] | EC50, CRE-Luc to follow PKA activation, transfected COS-7 cells [6] | EC50, SRE reporter gene that follows PKC activation, transfected COS-7 cells [7] | EC50, SRE reporter gene that follows PKC activation, transfected COS-7 cells [8] | EC50, SRE reporter gene that follows PKC activation, transfected COS-7 cells [9] |
| --- | --- | --- | --- | --- | --- | --- | --- | --- | --- | --- | --- | --- |
| STGINREAHLPFRPNMNDIFVGLL-NH2 [Zebrafish Tac3b peptide, neurokinin Bb (STGINREAHLPFRPNMNDIFVGLL-NH2)] | 519 nM | 33.8 nM | 605 nM | 204 nM | 237 nM | 8.96 nM | 191 nM | 336 nM | 99.6 nM | 15.3 nM | 204 nM | 6.06 nM |
| YNDIDYDSFVGLM-NH2 [Zebrafish Tac3f peptide, neurokinin F (YNDIDYDSFVGLM-NH2)] | 1.8 nM | 0.36 nM | 4.36 nM | 0.52 nM | 4.94 nM | 0.54 nM | 1.8 nM | 4.36 nM | 4.94 nM | 0.37 nM | 0.52 nM | 0.55 nM |
